Kd, kon and koff data for one molecule are collected here from US20190040142A1 (Genentech, published 2019).

Test [1] addresses T1, recombinant human KLB (soluble protein) (human, UniProt Q86Z14 53-997, limits assumed).
T1 construct: also called monomeric human KLB; recombinant KLB
Description: binding affinity test of Example 7 (FIG. 21); method not restated, presumably the Biacore assay of Example 6; text of Example 7 (FIG. 21); Table 9 prints 2.06 ± 0.11 nM. The procedure:
(§1) For binding affinity determination of tcIgG and traditional IgG, surface plasmon resonance (SPR) measurements using a BIAcore T200 and ProteinA sensor chip was used and dilutions of monomeric human KLB as analyte were injected over the immobilized tcIgG or traditional IgG at 25° C. to determine monovalent affinities. Association rates (kon) and dissociation rates (koff) were calculated using a simple one-to-one Langmuir binding model. The equilibrium dissociation constant (Kd) was calculated as the ratio koff/kon.
On the technique in general: In SPR one partner is held on a chip, and binding of the other changes the refractive index at the surface.

In test [2] the target is T1, recombinant human KLB (soluble protein). Description: SPR (BIAcore T200), antibody captured on Protein A chip, monomeric human KLB as analyte, 25 C, 1:1 Langmuir fit. How it is done:
as §1

The target is the same in test [3]. The test is described as follows: SPR, Biacore T200, antibody captured on Protein A chip, monomeric human KLB as analyte, 25 C; mean ± range of two experiments. How it is done:
as §1

B1: anti-KLB antibody clone 28B7 in tri-chain IgG format (antibody)
chain 1: DIVMTQSPSSLAVSVGEKVTLSCKSGQSLLYSRNQKNYLAWYQQKPGQSPKLLISWASTRESGVPDRFTGSGSGTDFTLTISSVKTEDLAVYHCQQYYSYPYTFGGGTRLEIKRGGGGSGGGGSGGGGSGGGGSEVQLQQSGPELVQPGTSVKISCEASGYTFTDYYINWVKQSRGKSLEWIGDINPNNGDTTYNQKFKAKATLTVDRSSNTAYMELRSLTSEDSVVYYCARRFYSSPFDSWGQGTTLTVSS
chain 2: not shown
notes: VL-linker-VH-CH1-CH2-CH3 (VLfH) plus a separate CL domain disulfide-bonded to CH1; also called 28B7 tcIgG; 28B7 tcIgG1; not shown: human IgG1 heavy chain constant region (CH1-hinge-CH2-CH3); monospecific tcIgG were made by c
By Kd is commonly meant the free concentration of one partner at which half of the binding sites on the other are occupied at equilibrium, for simple one-to-one binding. By kon is commonly meant the rate constant with which the complex forms. The koff is a measure of how fast the partners let go of each other. Regarding B1, the Kd in test [1] amounted to 2.05 nM. In test [2], the kon turned out to be 119000 M⁻¹ s⁻¹. Besides, in test [3], the equilibrium dissociation constant (Kd) worked out at 2.06 nM, the koff came to 0.000244 s⁻¹ and the on-rate (kon) was 117000 M⁻¹ s⁻¹.
